Biological target: the molecule itself
Assay: cross-linking

B1: CorA double cysteine mutant V183C/A8C (natural protein, Thermotoga maritima)
chain: MEEKRLSCKKGLPPGTLVYTGKYREDFEIEVMNYSIEEFREFKTTDVESVLPFRDSSTPTWINITGIHRTDVVQRVGEFFGIHPLVLEDILNVHQRPKVEFFENYVFIVLKMFTYDKNLHELESEQVSLILTKNCVLMFQEKIGDVFDPVRERIRYNRGIIRKKRADYLLYSLIDALVDDYFCLLEKIDDEIDVLEEEVLERPEKETVQRTHQLKRNLVELRKTIWPLREVLSSLYRDVPPLIEKETVPYFRDVYDHTIQIADTVETFRDIVSGLLDVYLSSVSNKTNEVMKVLTIIATIFMPLTFIAGIYGMNFEYMPELRWKWGYPVVLAVMGVIAVIMVVYFKKKKWL
stoichiometry N: 5
